Measurements: PMC10154330, “Machine learning-driven multifunctional peptide engineering for sustained ocular drug delivery” (Nature Communications, 2023)
Where two headings read alike, the source gives them in different places. Peptide text beside a SMILES is read from it. * marks the point of attachment. X1 = CC(C)[C@H](NC(=O)CCCCCN1C(=O)CC(*)C1=O)C(=O)N[C@@H](CCCNC(N)=O)C(=O)Nc1ccc(C[N+]2=C(Nc3ccc4nccnc4c3Br)NCC2)cc1

Key:
[1] = In vitro stability of HR97-brimonidine conjugate in human aqueous or vitreous; type: in vitro ADME; details: for remaining at 24 h, 1 mg/mL / remaining at 168 h, 1 mg/mL / remaining at 336 h, 1 mg/mL / remaining at 672 h, 1 mg/mL: male, human, human aqueous humor (donor eyes, 0.02 µm filtered), stability in human aqueous humor, read-out: Normalized HR97-VC-PAB-brimonidine (%)
Procedure: Two pairs of human donor eyes were obtained from the Lions Gift of Sight under protocol IRB00056984 approved by the Johns Hopkins University School of Medicine Institutional Review Board. Both donors were male with an mean age of 74.5. The post-mortem times ranged from 35–40 h. The eyes were kept at 4 °C during transport and arrived within 48 h post-mortem. The vitreous and aqueous were first isolated and subsequently combined and filtered through the 0.02 µm syringe filter to remove cell debris. HR97-brimonidine (1 mg/mL) was incubated with human aqueous or vitreous (700 µL) at 37 °C (n = 3). On days 0, 1, 7, 14, 21 and 28, 100 µL of the solutions were collected, diluted with 900 µL of acetonitrile, and characterized by HPLC (Prominence LC2030, Shimadzu) with Luna® 5 µm C18(2) 100 Å LC column 250 × 4.6 mm (Phenomenex). The elution flow rate was 1 mL/min and with gradient of 10/90/90/10% solvent B (TFA 0.1% in ACN) in 1/11/13/15 min at λmax = 250 nm for HR97-brimonidine (RT = 4.6 min).

[2] = tested on: melanin nanoparticles (mNPs); experiment: In vitro melanin binding assay (binding capacity and Kd, RED device, HPLC); set-up: species or system Sepia officinalis
Procedure: The solutions (400 µL) were then mixed thoroughly with 400 µL of 1 mg/mL mNPs in pH 6.5 PBS solution and transferred to the inner reservoir of the rapid equilibrium dialysis (RED) device inserts (8 K MWCO). The outer reservoir was filled with 800 µL of pH 6.5 PBS solution. The samples were incubated on an orbital shaker with temperature control at 37 °C and 300 rpm for 48 h (n = 3). The solutions from outer reservoir (free drug) were than collected and transferred to an autosampler vial for HPLC analysis (Prominence LC2030, Shimadzu, Columbia, MD) with photodiode-array detection (PDA) system. […] The amount of bound drug was used to calculate the binding capacity (mol drug/mg melanin) and the dissociation constant (Kd) as previously described[20],[34].

intraocular pressure = experiment: IOP measurement in normotensive Dutch Belted rabbits; type: in vivo
Procedure: (§1) For the IOP measurements in normotensive rabbits, Dutch Belted rabbits (2–3 kg) were used (n = 5). IOP was measured with a hand-held rebound tonometer icareTONOVET (Vantaa, Finland) in the awake and gently restrained rabbit. Each rabbit was acclimatized to the IOP measurement procedure for at least 5 days to obtain a stable background IOP reading. A mean of three IOP measurements for an individual eye were taken every other day for 6 days (3 times in total) and used as a baseline value. For the ICM injection procedure, rabbits were anesthetized with ketamine/xylazine and received topical anesthesia with 0.5% proparacaine hydrochloride. A corneal pre-puncture was performed with a 30 G needle, followed with a single bolus ICM injection of 200 µg (mass of brimonidine) of HR97-brimonidine or brimonidine tartrate solution in 100 µL saline using a 28 G needle. After the procedure, topical bacitracin-neomycin-polymyxin ophthalmic ointment was applied to both eyes to prevent infection and dry eyes. On day 7, an ophthalmologist masked to treatment evaluate the HR97-brimonidine injected eyes with the following items: functionality of lids, lashes, conjunctiva, cornea transparency, pigmentation of corneal endothelium, depth of anterior chambers, inflammation, fibrin strands, and symmetry of the lens[113]. […] In a separate study, a corneal pre-puncture was performed with a 30 G needle, followed with a single bolus ICM injection of 200 µg (mass of brimonidine) containing a physical mixture of unconjugated HR97 and brimonidine tartrate (HR97 + brimonidine), the equivalent amount of HR97 peptide alone, or saline alone in 100 µL saline. On day 7, day 14, day 21, and day 28, an ophthalmologist masked to treatment performed the same safety evaluations described above. IOP was measured on days 2, 3, 4, 5, 6, 7, 8, 10, 12, 14, 16, 18, and 20 after the ICM injection, and change in IOP from the baseline (ΔIOP) was reported. The mean of three IOP measurements was taken for each eye by one observer, and then confirmed by a masked observer. Alternatively, a single topical eye drop (Alphagan® P 0.1%, 50 µL) was given (n = 5). The IOP were measured immediately before the topical dosing (0 h), and at 2, 4, 6 and 8 h after the eyedrop administration. For the pharmacokinetics studies, rabbits (n = 4 per group) received a single ICM injection with 200 µg (mass of brimonidine) HR97-brimonidine as described above. Rabbits were sacrificed 1, 7, 14, 28 days after the injection, and iris, aqueous, and retina were collected for measuring the brimonidine concentration.

[3] = Ocular safety evaluation / ocular grading after ICM injection; details: single ICM injection, 200 µg brimonidine equivalent
Procedure: as §1

[4] = Brimonidine in ocular tissues after ICM injection (LC-MS/MS); details: LC-MS/MS
Procedure: as §1
Brimonidine concentrations in ocular tissues were measured by liquid chromatography-tandem mass spectrometry (LC-MS/MS) as previously described. All samples were collected in pre-weighed tubes and stored at −80 °C until processing for analysis. Tissue samples were homogenized in 100–600 μL 1 × PBS using a Bullet Blender® (Next Advance, Inc, Troy, NY, USA) before extraction. Brimonidine were extracted from 15 to 50 μL of tissue homogenates with 50 μL of acetonitrile containing 50/50/2.5 ng/mL of the internal standards. The top layer was then transferred to an autosampler vial for LC-MS/MS analysis after centrifugation. All ocular tissue samples were analyzed using a 1 × PBS standard curve for brimonidine. […] The column effluent was monitored using a 5500 mass-spectrometric detector (Sciex) using electrospray ionization operating in positive mode. The mobile phase A was water containing 0.1% formic acid and mobile phase B was acetonitrile containing 0.1% formic acid. The gradient started with mobile phase B held at 20% for 0.5 min and increased to 100% over 0.5 min; 100% mobile phase B was held for 1 min and then returned to 20% mobile phase B and allowed to equilibrate for 1 min.

[5] = tested on: human cathepsins B, K, L, and S; experiment: Cathepsin cleavage assay
[6] = binding capacity and dissociation constant of ocular drugs, melanin
[7] = 28 days after single ICM injection of HR97-brimonidine (200 µg brimonidine equivalent), n = 3-4

Molecule: CC(C)[C@H](NC(=O)CCCCCN1C(=O)CC(SC[C@H](NC(=O)[C@H](CCCNC(=N)N)NC(=O)[C@@H]2CCCN2C(=O)[C@H](CCCCN)NC(=O)[C@H](CCCNC(=N)N)NC(=O)[C@H](CCCCN)NC(=O)[C@H](CCCNC(=N)N)NC(=O)[C@H](CCCNC(=N)N)NC(=O)[C@H](CCCCN)NC(=O)CNC(=O)[C@H](CO)NC(=O)[C@@H](N)Cc2ccccc2)C(=O)O)C1=O)C(=O)N[C@@H](CCCNC(N)=O)C(=O)Nc1ccc(C[N+]2=C(Nc3ccc4nccnc4c3Br)NCC2)cc1 (stereo partly shown) [HR97-VC-PAB-brimonidine] (H-FSGKRRKRKPRC(X1)-OH; N-terminus and C-terminus assumed)
- remaining at 24 h, 1 mg/mL ([1]; day 1, replicate 1): 99.1%
- remaining at 24 h, 1 mg/mL ([1]; day 1, replicate 2): 93.5%
- remaining at 24 h, 1 mg/mL ([1]; day 1, replicate 3): 95.5%
- remaining at 168 h, 1 mg/mL ([1]; day 7, replicate 1): 90.8%
- remaining at 168 h, 1 mg/mL ([1]; day 7, replicate 2): 101%
- remaining at 168 h, 1 mg/mL ([1]; day 7, replicate 3): 96.4%
- remaining at 336 h, 1 mg/mL ([1]; day 14, replicate 1): 92.6%
- remaining at 336 h, 1 mg/mL ([1]; day 14, replicate 2): 95.3%
- remaining at 336 h, 1 mg/mL ([1]; day 14, replicate 3): 93.9%
- remaining at 672 h, 1 mg/mL ([1]; day 28, replicate 1): 88.5%
- remaining at 672 h, 1 mg/mL ([1]; day 28, replicate 2): 95%
- remaining at 672 h, 1 mg/mL ([1]; day 28, replicate 3): 92.3%

Molecule: FSGKRRKRKPRC [HR97-brimonidine]
- Binding Capacity (mole/mg melanin) [2, 6]: 5.9e-7 mole/mg melanin
- Kd [2, 6]: 4.36 µM
- increase in the in vitro melanin binding capacity of brimonidine by conjugation to HR97 ([2]; versus brimonidine): ~ 10 fold
- brimonidine released from the conjugate in human aqueous fluid ([1]; 1 mg/mL in human aqueous (donor eyes, 0.02 µm filtered), 37 °C, over 28 days, HPLC 250 nm, normalized to day 0, mean of n = 3): ~ 7%
- AUClast of cumulative ΔIOP, fold greater compared to brimonidine solution (intraocular pressure; 20-day measurement period after ICM injection, n = 5, p < 0.001): ~ 17 fold
- time during which mean ΔIOP remained significantly larger than with brimonidine solution or physical mixture (intraocular pressure; single ICM injection): up to 14 days
- peak ΔIOP at 2 days (intraocular pressure; single ICM injection, 200 µg brimonidine equivalent, n = 5): −4.9 ± 0.46 mmHg
- time for the mean ΔIOP to return to baseline (intraocular pressure; single ICM injection, n = 5 per group): 20 days
- duration of IOP lowering (intraocular pressure; single ICM injection, normotensive rabbits): up to 18 days
- ocular toxicity, ophthalmologist evaluation on day 7 [3]: no apparent inflammation or fibrin strands
- brimonidine concentration in aqueous humor [4, 7]: 0.4 ng/g
- brimonidine concentration in iris [4, 7]: 980 ng/g
- brimonidine concentration in retina [4, 7]: 8.3 ng/g
- brimonidine concentration in the aqueous ([4]; day 7 after single ICM injection of HR97-brimonidine): 83.3 ng/g
- brimonidine concentration in the aqueous ([4]; day 14 after single ICM injection of HR97-brimonidine): 3.9 ng/g
- cathepsin cleavage assay, Cathepsin ([5]; replicate 1): 47
- cathepsin cleavage assay, Cathepsin ([5]; replicate 2): 58
- cathepsin cleavage assay, Cathepsin ([5]; replicate 3): 42
- brimonidine liberated with human cathepsin cocktails ([5]; conjugate 200 μM diluted 1:1 with 100 mM citrate buffer pH 5.5, 5 mM cysteine, cathepsins B, K, L, S 150 nM each, within 48 h, 37 °C, HPLC, normalized to 0 h, n = 3): ~ 52%
